In publication doi:10.1101/2024.04.24.591037:

Columns and labels:
[1] = target: Kluyveromyces marxianus GCN2 HRSL domain (residues 996-1511) (Kluyveromyces marxianus); assay: SEC
[2] = target: ΔN-terminal GCN2 HRSL, mutant Δ(V996-N1009) of Kluyveromyces marxianus GCN2 HRSL (Kluyveromyces marxianus); assay: SEC

Row | Substance | stoichiometry N [1] | stoichiometry N [2]
1 | Kluyveromyces marxianus GCN2 HRSL domain (residues 996-1511) (domain or fragment) | 2 | 
2 | ΔN-terminal GCN2 HRSL, mutant Δ(V996-N1009) of Kluyveromyces marxianus GCN2 HRSL (domain or fragment) |  | 2
